According to patent US20200308290A1 (AbbVie / Abbott, published 2020):
Read-outs that look alike come from different tables or passages of the source.

T1: CD25 (recombinant) (human, UniProt P01589 22-213, limits assumed)
T1 construct: bought protein; also called IL2-R alpha; IL2-Rα
T1 sequence (looked up): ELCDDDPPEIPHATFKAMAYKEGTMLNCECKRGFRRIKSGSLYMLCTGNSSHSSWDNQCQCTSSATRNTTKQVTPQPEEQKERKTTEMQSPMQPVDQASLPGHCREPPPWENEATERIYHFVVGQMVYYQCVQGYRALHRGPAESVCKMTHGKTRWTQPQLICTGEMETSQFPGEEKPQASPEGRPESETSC

T2: recombinant human CD25 (IL2-Rα) (human, UniProt P01589 22-213, limits assumed)
T2 construct: Bought protein; also called recombinant human IL2-Rα; recombinant soluble human CD25
T2 sequence (looked up): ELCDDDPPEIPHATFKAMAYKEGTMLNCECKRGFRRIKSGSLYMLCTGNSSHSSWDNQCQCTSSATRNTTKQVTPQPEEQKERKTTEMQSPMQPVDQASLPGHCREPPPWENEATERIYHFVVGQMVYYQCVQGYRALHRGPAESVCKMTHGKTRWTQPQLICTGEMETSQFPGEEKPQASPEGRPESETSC

T3: cynomolgous CD25-HA (cynomolgous monkey, UniProt H6WS54 22-240)
T3 construct: also called cynomolgous monkey CD25; cmCD25; not shown: exact C-terminal limit of the PDL BioPharma construct
T3 sequence: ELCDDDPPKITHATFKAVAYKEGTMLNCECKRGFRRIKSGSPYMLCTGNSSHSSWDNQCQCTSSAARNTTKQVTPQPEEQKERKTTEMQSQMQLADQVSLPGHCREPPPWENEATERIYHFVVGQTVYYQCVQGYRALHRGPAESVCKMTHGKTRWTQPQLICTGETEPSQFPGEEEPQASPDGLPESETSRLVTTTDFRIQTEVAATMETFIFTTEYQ


How the values were obtained:
[1] = target: T1, CD25 (recombinant); test: SPR (BIAcore)
[2] = target: T1, CD25 (recombinant); test: ELISA, relative to wild type
[3] = target: T2, recombinant human CD25 (IL2-Rα); test: SPR (BIAcore), antibody captured by anti-human Fc, soluble human CD25 as analyte, n=3
Protocol: (§1) For this capture approach, 30 μg/ml of GAHFc was immobilized to achieve a high response unit (20,000 RU) on each flow cell on the Research-grade CMS sensor chip using the BIAcore amine coupling reagents (N-ethyl-N′-dimethylamino-propylcarbodiimide, EDC; N-hydroxysuccinimide, NHS; and ethanolamine HCl, pH 8.5). […] A 3 min association phase of CD25 was followed by a 15 min injection of HBS-P running buffer (10 mM HEPES, 150 mM sodium chloride, 0.005% P-20 surfactant, pH 7.4) to monitor dissociation for each binding cycle, with a different CD25 concentration per cycle. The surface was regenerated with 20 mM HCl at 100 μl/min flow rate at the end of each cycle. […] Double referencing was applied in each analysis to eliminate background responses from reference surface and buffer only control (0 nM). […] Each set of experiments was performed three times to assess the standard deviation of the data.
(§2) Modified antibody proteins were tested for binding affinity using a surface plasmon resonance assay format in a BIAcore device. […] Recombinant soluble human CD25 was flowed over the sensor chip and changes in mass were detected.

[4] = target: T2, recombinant human CD25 (IL2-Rα); test: as above; remark: listed apart in the source
Protocol: as §1, §2

[5] = target: T3, cynomolgous CD25-HA; test: SPR (BIAcore), antibody captured by anti-human Fc, cynomolgous CD25-HA as analyte, n=3
Protocol: as §1, §2

Binder	Kd [1] [nM]	ELISA (wt = 1) [2]	Kd [3] [nM]	Kd [4] [nM]	Kd [5] [nM]
daclizumab variant S79 (antibody, IgG1, name in Kabat numbering, V domains shown, IgG1; Kabat positions; also called E73K) VH: QVQLVQSGAEVKKPGSSVKVSCKASGYTFTSYRMHWVRQAPGQGLEWIGYINPSTGYTEYNQKFKDKATITADKSTNTAYMELSSLRSEDTAVYYCARGGGVFDYWGQGTLVTVSS VL: DIQMTQSPSTLSASVGDRVTITCSASSSISYMHWYQQKPGKAPKLLIYTTSNLASGVPARFSGSGSGTEFTLTISSLQPDDFATYYCHQRSTYPLTFGQGTKVEVK	0.388	1.5 fold (wt = 1)			
DAC I48M (antibody, IgG1, name in Kabat numbering, V domains shown, E.HAT variant, IgG1/kappa) VH: QVQLVQSGAEVKKPGSSVKVSCKASGYTFTSYRMHWVRQAPGQGLEWMGYINPSTGYTEYNQKFKDKATITADESTNTAYMELSSLRSEDTAVYYCARGGGVFDYWGQGTLVTVSS VL: DIQMTQSPSTLSASVGDRVTITCSASSSISYMHWYQQKPGKAPKLLIYTTSNLASGVPARFSGSGSGTEFTLTISSLQPDDFATYYCHQRSTYPLTFGQGTKVEVK			0.375	0.357	0.371
